Test system: MS2 coat protein
Test: apparent KD of MS2 coat protein; designed switch direction (-1 OFF switch, 1 ON switch): 1; higher = weaker reporter binding
How it was run: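 Designed RNA switches with common flanks were transcribed on Illumina chips by stalled E. coli RNA polymerase and titrated with SNAP-549-labelled MS2 coat protein, from 0.7 or 1.5 nM doubling to 3 µM, in Tris-HCl pH 7.5 buffer with KCl, MgCl2, BSA, DTT, tRNA and Tween-20. Steps lasted 0.8–1.5 h (lowest) to 10–20 min (highest). Titrations ran without input, with 200 uM small-molecule ligand, or with an oligonucleotide input. Normalised cluster fluorescence was curve-fitted, and apparent KD is the per-design median over clusters.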

[1] = input ligand: microRNA oligo, concentration not stated
[2] = Eterna round: R95, input ligand: FMN 200 uM
[3] = Eterna round: R95, input ligand: microRNA oligo, concentration not stated
[4] = Eterna round: R95, input ligand: none

Row | Sequence | apparent KD of MS2 coat protein (input ligand: FMN 200 uM) | apparent KD of MS2 coat protein [1] | apparent KD of MS2 coat protein (input ligand: none) | apparent KD of MS2 coat protein [2] | apparent KD of MS2 coat protein [3] | apparent KD of MS2 coat protein [4]
1 | UUAAAGAAUUAAGGAUAUUGAAUACAUAUGUUUAACAUGAGGAUCACCCAUGUGGGUUGCGGUAUCGAGAAGGUAAAAUAAUAG [Mat - Same State NG 2 - JL mod - D5] (Eterna round: R96, puzzle: Same State NG 2) | 108 nM | 106 nM | 118 nM | – | – | –
2 | ACACUUGCACAUGAGGAUCACCCAUGUUGACAAGCUUUUUGCUCGUCUUAUAGAACAAAGAAGAAGAACAACAGAAA [Victory 2] (puzzle: Sensor for hsa-mir-208a version 2) | – | – | – | 20.7 nM | 17.9 nM | 21.9 nM
3 | GGUGUACAUGAGGAUCACCCAUGUCGACCGCUCACAGGAUAUUUAAUACAAACUGGUAGCGGAGAAGGGUGAGGAA [Oresbeve] (Eterna round: R96, puzzle: Same State 1) | 523 nM | 160 nM | 188 nM | – | – | –
4 | UGUUAACAUGAGGAUCACCCAUGUCAAAUGAAUGAAGGAUAUGGAAAGUAAUAAGAUGAACUAGAAGGUCAAGAUG [Altered State 1-22 - Jieux - Same State 1] (puzzle: Same State 1) | – | – | – | 48.4 nM | 51.9 nM | 49.8 nM
5 | GUAGCAUACCGAGGAUAUUCAUAUACAUGAGGAUCACCCAUGUUGGCCAGCAUUAGCUGGCCUUGGGAGAAGGCGGAAUGCUAC [Xeonanis - 20 Mod50] (Eterna round: R96, puzzle: Same State NG 2) | 18.9 nM | 79.4 nM | 141 nM | – | – | –
6 | UGGUACAUGGGAGGAUAUGGAGUGAAGACAUGAGGAUCACCCAUGUUAUAAAAGCCGAGAGGCAACUAGAAGGCCCAUGUACCU [JL SSNG1 3.93] (Eterna round: R96, puzzle: Same State NG 2) | 14.3 nM | 37 nM | 55 nM | – | – | –
7 | GUUAAACAUGAGGAUCACCCAUGUAAUAAUAUGGGAGGAUAUCAGAAAUUAUGUAUGAAAUGAGAAGGCCUAAUUG [Mat - Same State 1 - Mod of Eli - D79] (puzzle: Same State 1) | – | – | – | 89.8 nM | 244 nM | 198 nM
8 | AAGAUGCUCGUAGGAUAUUGGAAAGGAAGUGUACAAGAAGGACGGUGUCACAUGAGGAUCACCCAUGUUACAGUCUAAUGACUG [PowerStrip SSNG 1.1] (Eterna round: R96, puzzle: Same State NG 1) | 18.7 nM | 53.5 nM | 61.4 nM | – | – | –
9 | GGUCCAGCCUGAGCUGGACUACAGCAUGUACAUGAGGAUCACCCAUGUCAUGUACAUGUUUUUUGUUUGUCUUAAAA [Sensorship 9 - Jieux - Sensor for hsa-mir-208a] (Eterna round: R96, puzzle: Sensor for hsa-mir-208a) | 200 nM | 57.5 nM | 503 nM | – | – | –
10 | CAGCGCUGUCGAGAGGAUAUGUGGUGAUGGACAUGAGGAUCACCCAUGUUAGCGACAGCAUCACGGCAGAAGGCUCUACCGCUGC [Soteed Omei mod 30] (puzzle: Same State 2) | – | – | – | 31.2 nM | 40.6 nM | 23.1 nM
11 | UAGUGAUUGCAAGGAUAUGCUUAUGUUUAAUUUUAUUUAUUAUCUAACAUGAGGAUCACCCAUGUGCAGAAGGUGCUUGAUUUG [JR_SSNG2_Sub074] (Eterna round: R96, puzzle: Same State NG 2) | – | 48.4 nM | – | – | – | –
12 | ACGCAGCUGGGUAAGGAUAUCGGUGGUAAAACAUGAGGAUCACCCAUGUCCGAAGCUCGGACUUCCGAGAAGGUGCCCGGCUGCG [Soinraesar Omei Mod 6] (puzzle: Same State 2) | – | – | – | 23.8 nM | 222 nM | 218 nM
13 | UUGCGCUGUCGAGAGGAUAUGCGGUGUUGGACAUGAGGAUCACCCAUGUUAGCGAUAGCUUUACGGUAGAAGGCUCUUCAGCUGC [salish99_ss2_r3_097] (puzzle: Same State 2) | – | – | – | – | 99 nM | –
14 | UCUGCAUGAACAGGAUAUGGGUUCAGAGCGGGAGUGCGCUUUGACACAUGAGGAUCACCCAUGUCCCAGAAGGGUUCAAGCGGC [Rianbein] (Eterna round: R96, puzzle: Same State NG 2) | 47.7 nM | 219 nM | 430 nM | – | – | –
15 | GGAAAGAGGUCAGGAUAUGAAUGGUUGGGACAUGAGGAUCACCCAUGUAAUAGAAGAAAUCUACAUUAGAAGGGACAAGGAAGG [AK SSNG2-V2-5.1] (Eterna round: R96, puzzle: Same State NG 2) | 129 nM | 116 nM | 212 nM | – | – | –
16 | CGUCCGGCCUGUGCUGGCCGGUAGCAUGUACAUGAGGAUCACCCAUGUUCAUGUGCAGGCUUUUUGCUCGUCUUGUG [salish99_mir208a_r3_007] (puzzle: Sensor for hsa-mir-208a) | – | – | – | 34 nM | 12.3 nM | 33.8 nM
